Three molecules from patent publication US20090042809A1 (published 2009) can be followed below.

Test [1] has as its target T1, angiotensin converting enzyme (ACE), obtained from Sigma Chemicals. The test can be described thus: cell-based or functional assay.
For test [2], the target named is T1, angiotensin converting enzyme (ACE), …. The test can be described thus: cell-based or functional assay. The source holds these as a separate data set.

As for IPP [tripeptide IPP (Ile-Pro-Pro), chemically synthesised], in test [1], the “IC50 value in µM, Modified Matsui assay (cleavage of Hip-His-Leu by ACE)” value (from here on “IC50 value in µM, Modified Matsui assay”) came to 2 µM and the “IC50 value in µM, at-line ACE assay (cleavage of HHL by ACE)” value (from here on “IC50 value in µM, at-line ACE assay”) is 7.1 µM.
In the case of ITP [tripeptide ITP (Ile-Thr-Pro), chemically synthesised], in test [1], the “IC50 value in µM, Modified Matsui assay” value worked out at 10 µM and the “IC50 value in µM, at-line ACE assay” value turned out to be 50 µM.
Consider MAP [tripeptide MAP (Met-Ala-Pro), chemically synthesised], for which, in test [1], the “IC50 value in µM, Modified Matsui assay” value worked out at 0.4 µM and the “IC50 value in µM, at-line ACE assay” value is 3.8 µM. The “IC50 value in the Modified Matsui test” value in test [2] worked out at 0.5 µM.
